Laboratory results published in US7741276B2, “Use of interleukin-18 inhibitors to inhibit tumor metastasis” (Ares Trading S.A., priority 1999, dated 2010).
Several values for one entry are separate records, joined by “and”; a condition that tells them apart may be missing. Equal entries are not always repeated. Marks after values point to notes of the source that are not given here.

Assays:
[1] = test system: B16M cell adhesion to IL-18-treated HSE; assay: B16M cell adhesion to IL-18-treated HSE; type: cell-based, mouse
Protocol: FIG. 4. In vitro B16M cells adhesion to IL-18-treated HSE. HSE cells were incubated with 1 ng/ml recombinant murine IL-18 for 6 hours. In some experiments, 10 μg/ml TNF-sRp55 or 100 ng/ml IL-1Ra was added 10 min before IL-18.In other experiments, 10 μg/ml anti-VCAM-1 antibody or a similar concentration of non-specific anti-mouse lgG was added to HSE cells 30 min before B16M cells. Then, B16M cell adhesion percentage was determined as described hereinbelow in the examples. The results represent the mean ±SD of three separate experiments, each in sextuplicate (n=18). Differences in the degree of adhesion with respect to basal medium-treated HSE (*) and to IL-18-treated HSE (**) were statistically significant (P<0.01), according to the Student's two-tailed, unpaired t-test.
(§1) HSE was separated from syngeneic mice, identified and cultured as previously described (26). B16M cells were labeled with 2′,7′-bis-(2-carboxyethyl)-5,6-carboxyfluorescein-acetoxymethylester solution (BCECF-AM, Molecular Probes, Eugene, Oreg.) as reported (16). Then, 2×10^5 cells/well were added to 24-well-plate cultured HSE and 8 min later, wells were washed three times with fresh medium. The number of adhering cells was determined using a quantitative method based on a previously described fluorescence measurement system (16). In some experiments, HSE cells were pre-incubated with B16M-CM for several hours before addition of B16M cells.

[2] = test system: B16M cell adhesion to HSE cells; assay: B16M cell adhesion to B16M-CM-treated primary HSE cultures; type: cell-based, mouse; conditions: for % Melanoma Cell Adhesion: HSE stimulated with B16-CM
Protocol: FIG. 2 Effect of irreversible ICE inhibitor and anti-mouse IL-18 antibody on B16M cell adhesion to HSE cells, and IL-1β and TNF-α production from untreated and B16M-CM-treated HSE. Cultured HSE cells were incubated in the presence of B16M-CM for 10 h. In some experiments, both untreated and treated HSE cells received 10 μM ICEi or 10 μg/ml anti-mouse IL-18 antibody before B16M-CM. The percentage of B16M cells adhered to HSE substrate was calculated as relative value with respect to the initial number of added cells. In addition, the culture supernatants were recovered before adhesion to determine IL-1β and TNF-α concentration by ELISA. Data represent the mean ±SD of 4 separate experiments, each in sextuplicate (n=24). The augmentation of B16M cell adhesion to B16M-CM-treated HSE and of IL-1β or TNF-α production with respect to untreated HSE (*P<0.01) were statistically significant according to the Student's two-tailed, unpaired t-test.
(§2) FIG. 3. Effect of ICEi on B16M cell adhesion to B16M-CM-treated HSE in vitro. HSE cells were incubated with basal medium or B16M-CM for 8 h. Some HSE cells received 10 μM ICEi for 18 h before B16M-CM. In addition, 1 ng/ml recombinant murine IL-1β was also added to some HSE cells together with B16M-CM for 8 h. In other experiments, HSE cells received 1 ng/ml murine IL-1β or 100 pg/ml TNF-α for 6 h, and 10 μg/ml rabbit anti-mouse IL-18 polyclonal antibody was added or not 1 h before the cytokine treatment. Non-specific IgG polyclonal antibody was also added to untreated and cytokine-treated HSE cells. Then, HSE cells were washed and BCEFCF-AM-labeled B16M cells were added and washed again 8 min later. The percentage of B16M cells adhered to HSE substrate was calculated as relative value with respect to the initial number of added cells. The results represent the mean ±SD of three separate experiments, each in sextuplicate (n=18). Differences in the degree of adhesion with respect to untreated HSE (*) and to IL-1β or TNF-α-treated HSE (**) were statistically significant (P<0.01), according to the Student's two-tailed, unpaired t-test.
Culture of B16M cells. B16M cells were cultured, maintained and passaged as previously described (11). B16M conditioned medium (B16M-CM) was prepared as follows: 5×10^5 cells were plated in a 25 cm^2 T-flask and cultured for 24 h. After which, cells were cultured for an additional period of 24 h in 5 ml serum-free medium (final cellular density of 6×10^4 cells/cm^2). Supernatants were collected, diluted 3:1 in fresh serum-free medium and passed through a 0.22 Ïm filter.
(§3) HSE was separated from syngeneic mice, identified and cultured as previously described (26). […] The number of adhering cells was determined using a quantitative method based on a previously described fluorescence measurement system (16). […]

IL-18 = biological target: T1, IL-18 (Homo sapiens, UniProt Q14116); conditions: in vitro; cited from earlier work
T1 sequence (Q14116 37-193): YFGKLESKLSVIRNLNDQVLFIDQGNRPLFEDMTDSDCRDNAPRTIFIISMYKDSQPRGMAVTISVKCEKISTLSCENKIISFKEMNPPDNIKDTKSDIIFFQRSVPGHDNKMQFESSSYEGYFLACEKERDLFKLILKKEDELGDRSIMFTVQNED

circulating IFN-γ = conditions: administration of IL-18BP to mice; cited from earlier work
B16M cells = assay: Adhesion of pre-treated B16M cells (IL-18 or supernatant of B16M-CM-treated HSE) to HSE; type: cell-based, mouse; conditions: B16M cells incubated with 1 ng/ml murine IL-18 for 6 h
Protocol: However, local production of IL-18 may influence B16M cell behavior during its transit or arrest in the hepatic microvasculature.
as §1

[3] = test system: B16M cell adhesion to IL-1β or TNF-α-treated HSE; assay: B16M cell adhesion to IL-1β- or TNF-α-treated HSE; type: cell-based, mouse; conditions: 1 ng/ml murine IL-1β
Protocol: as §2, §3

Q: For “IL-1Ra: recombinant human IL-1 receptor antagonist, gift from The Upjohn Co. [reference compound]”, which “inhibition of IL-18-induced B16M cell adhesion to HSE” value ([1]; 100 ng/ml IL-1Ra added 10 min before IL-18) is on record?
A: neither TNF-sR p55 nor IL-1Ra were able to inhibit it

B1: TNF-sR p55: human p55 TNF soluble receptor, gift from Serono Inc. (protein, UniProt P19438 30-211, looked up)
extracellular domain: LVPHLGDREKRDSVCPQGKYIHPQNNSICCTKCHKGTYLYNDCPGPGQDTDCRECESGSFTASENHLRHCLSCSKCRKEMGQVEISSCTVDRDTVCGCRKNQYRHYWSENLFQCFNCSLCLNGTVHLSCQEKQNTVCTCHAGFFLRENECVSCSNCKKSLECTKLCLPQIENVKGTEDSGTT
modifications: extracellular domain
Q: For B1, which “inhibition of IL-18-induced B16M cell adhesion to HSE” value ([1]; 10 μg/ml TNF-sRp55 added 10 min before IL-18) is on record?
A: neither TNF-sR p55 nor IL-1Ra were able to inhibit it

B2: IL-18BP: IL-18 binding protein, purified from urine, cloned and expressed in COS7 cells; binds IL-18 and blocks its activity (protein, UniProt O95998 31-194, looked up)
Interleukin-18-binding protein: TPVSQTTTAATASVRSTKDPCPSQPPVFPAAKQCPALEVTWPEVEVPLNGTLSLSCVACSRFPNFSILYWLGNGSFIEHLPGRLWEGSTSRERGSTGTQLCKALVLEQLTPALHSTNFSCVLVDPEQVVQRHVVLAQLWAGLRATLPPTQEALPSSHSSPQQQG
Q: Which “% Melanoma Cell Adhesion” value ([2]; IL-18BP 1 ng/ml) does the source give for B2 here?
A: 15.00 ± 2.5** %

Q: What about the “% Melanoma Cell Adhesion” value ([2]; IL-18BP 10 ng/ml) of the same molecule?
A: 8.70% and 8.70 ± 1.1** %

Q: And the “inhibition of B16-CM-induced adhesion” value ([2]; IL-18BP 10 ng/ml, adhesion below basal medium level)?
A: 100%

Q: What about the “IL-18 activation of NF-κB” value (IL-18) of the same molecule?
A: abolished

Q: And the “IL-18 induction of IL-8” value (IL-18)?
A: abolished

Q: What about the “IL-18 induction of interferon-γ (IFN-γ)” value (IL-18) of the same molecule?
A: abolished

Q: What about the “circulating IFN-γ following LPS” value (circulating IFN-γ) of the same molecule?
A: abrogated

B3: murine IL-18: recombinant murine IL-18 purchased from PeproTech (protein, UniProt P70380 36-192, looked up)
Interleukin-18: NFGRLHCTTAVIRNINDQVLFVDKRQPVFEDMTDIDQSASEPQTRLIIYMYKDSEVRGLAVTLSVKDSKMSTLSCKNKIISFEEMDPPENIDDIQSDLIFFQKRVPGHNKMEFESSLYEGHFLACQKEDDAFKLILKKKDENGDKSVMFTLTNLHQS
Q: With B3 as the molecule, how does the “increase of B16M cell adhesion to untreated HSE” value (B16M cells) read?
A: 2 fold

Q: What about the “B16M cell adhesion to HSE” value ([1]; HSE incubated with 1 ng/ml recombinant murine IL-18 for 6 hours, P<0.01) of the same molecule?
A: increased

B4: murine IL-1β: recombinant murine IL-1β from R&D System Inc. (protein, UniProt P10749 118-269, looked up)
Interleukin-1 beta: VPIRQLHYRLRDEQQKSLVLSDPYELKALHLNGQNINQQVIFSMSFVQGEPSNDKIPVALGLKGKNLYLSCVMKDGTPTLQLESVDPKQYPKKKMEKRFVFNKIEVKSKVEFESAEFPNWYISTSQAEHKPVFLGNNSGQDIIDFTMESVSS
Q: Which “compensation of the blocking effect of ICEi on HSE adhesiveness” value ([2]; 1 ng/ml murine IL-1β added with B16M-CM for 8 h to ICEi-treated HSE) does the source give for B4 here?
A: did not compensate

Q: And the “B16M cell adhesion to IL-1β-treated control HSE” value [3]?
A: significant B16M cell adhesion increase
